Measured values taken from US10500249B2, “Compositions and methods for preventing or treating diseases, conditions, or processes characterized by aberrant fibroblast proliferation and extracellular matrix deposition” (MOERAE MATRIX, INC., priority 2014, dated 2019).

Tests used:
Assay in all cases: Kinase Profiling Assay
Type in all cases: biochemical
Details in all cases: 100 μM
PKCδ (h) = biological target: T1, PKCδ (h) (Homo sapiens, UniProt Q05655)
T1 construct: purchased Millipore
Method: (§1) Every kinase activity measurement was conducted in duplicate.
(§2) Specifically, in these assays, a positively charged substrate is phosphorylated with a radiolabeled phosphate group from an ATP if the kinase is not inhibited by an inhibitor peptide. The positively charged substrate then is attracted to a negatively charged filter membrane, quantified with a scintillation counter, and compared to a 100% activity control.
(§3) In addition to determining the IC50 of the compound, the specificity of MK2 inhibitory peptides was assessed by examining activities of all 266 human kinases available for testing in the Millipore kinase profiling service (Table 1).

ROCK-I (h) = ROCK-I (h) (Homo sapiens, UniProt Q13464)
ROCK-I (h), sequence (Q13464 whole entry): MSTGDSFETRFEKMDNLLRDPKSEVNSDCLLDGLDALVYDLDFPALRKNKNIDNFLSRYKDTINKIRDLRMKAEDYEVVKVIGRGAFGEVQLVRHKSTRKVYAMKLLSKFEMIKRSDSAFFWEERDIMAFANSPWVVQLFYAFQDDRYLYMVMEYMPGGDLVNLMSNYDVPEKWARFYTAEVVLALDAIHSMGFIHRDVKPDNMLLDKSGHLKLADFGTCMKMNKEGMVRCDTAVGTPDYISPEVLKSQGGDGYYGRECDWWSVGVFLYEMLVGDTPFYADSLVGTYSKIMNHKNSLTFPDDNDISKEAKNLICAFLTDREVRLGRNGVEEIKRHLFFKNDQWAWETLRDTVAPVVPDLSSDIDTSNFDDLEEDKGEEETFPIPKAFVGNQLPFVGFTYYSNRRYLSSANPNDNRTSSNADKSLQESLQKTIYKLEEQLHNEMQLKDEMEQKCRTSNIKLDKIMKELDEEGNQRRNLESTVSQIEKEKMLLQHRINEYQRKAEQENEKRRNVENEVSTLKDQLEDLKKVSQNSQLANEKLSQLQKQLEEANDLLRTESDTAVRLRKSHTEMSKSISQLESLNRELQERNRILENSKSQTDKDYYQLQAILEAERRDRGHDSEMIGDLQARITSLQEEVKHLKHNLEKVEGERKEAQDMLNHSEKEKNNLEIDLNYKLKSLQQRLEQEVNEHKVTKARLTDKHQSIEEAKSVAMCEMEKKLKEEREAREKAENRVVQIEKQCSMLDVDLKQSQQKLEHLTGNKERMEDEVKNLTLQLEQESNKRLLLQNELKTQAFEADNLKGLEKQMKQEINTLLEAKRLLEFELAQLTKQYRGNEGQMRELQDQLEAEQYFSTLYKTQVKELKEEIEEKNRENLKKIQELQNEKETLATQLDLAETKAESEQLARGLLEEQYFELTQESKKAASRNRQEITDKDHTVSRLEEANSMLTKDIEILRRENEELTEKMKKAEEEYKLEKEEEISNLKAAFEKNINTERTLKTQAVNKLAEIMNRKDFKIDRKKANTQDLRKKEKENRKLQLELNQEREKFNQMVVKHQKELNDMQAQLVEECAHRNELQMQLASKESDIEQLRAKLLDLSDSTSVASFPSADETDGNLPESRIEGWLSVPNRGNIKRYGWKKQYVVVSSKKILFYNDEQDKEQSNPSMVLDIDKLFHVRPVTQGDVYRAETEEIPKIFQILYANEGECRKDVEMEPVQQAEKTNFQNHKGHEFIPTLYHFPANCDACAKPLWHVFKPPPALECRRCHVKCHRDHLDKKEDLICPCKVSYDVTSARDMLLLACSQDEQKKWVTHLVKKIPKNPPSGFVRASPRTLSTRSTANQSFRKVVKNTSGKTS
Method: as §1, §2, §3

IKKβ (h) = biological target: T2, IKKβ (h) (Homo sapiens, UniProt O14920)
T2 construct: purchased Millipore
T2 sequence (O14920 1-756): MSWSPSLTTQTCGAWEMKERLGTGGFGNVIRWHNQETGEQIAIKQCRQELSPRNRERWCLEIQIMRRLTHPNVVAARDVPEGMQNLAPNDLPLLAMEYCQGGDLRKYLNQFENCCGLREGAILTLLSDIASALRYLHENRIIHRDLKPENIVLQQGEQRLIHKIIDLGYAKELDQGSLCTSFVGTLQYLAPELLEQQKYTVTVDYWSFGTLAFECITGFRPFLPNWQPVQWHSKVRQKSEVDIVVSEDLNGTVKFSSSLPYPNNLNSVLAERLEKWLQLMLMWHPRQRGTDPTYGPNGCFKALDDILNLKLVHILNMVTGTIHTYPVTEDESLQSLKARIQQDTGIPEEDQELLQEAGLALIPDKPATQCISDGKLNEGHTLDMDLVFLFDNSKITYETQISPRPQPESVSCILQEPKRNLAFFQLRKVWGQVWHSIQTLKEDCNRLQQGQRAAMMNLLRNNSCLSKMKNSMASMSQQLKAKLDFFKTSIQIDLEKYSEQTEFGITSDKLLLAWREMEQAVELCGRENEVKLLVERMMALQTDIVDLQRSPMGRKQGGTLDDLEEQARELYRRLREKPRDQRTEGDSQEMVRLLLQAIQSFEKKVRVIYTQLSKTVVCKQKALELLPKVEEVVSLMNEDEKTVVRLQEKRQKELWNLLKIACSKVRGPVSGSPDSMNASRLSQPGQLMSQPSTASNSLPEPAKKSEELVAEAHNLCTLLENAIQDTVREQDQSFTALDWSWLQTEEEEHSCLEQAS
Method: as §1, §2, §3

GRK7 (h) = biological target: T3, GRK7 (h) (Homo sapiens, UniProt Q8WTQ7)
T3 construct: purchased Millipore
T3 sequence (Q8WTQ7 1-553): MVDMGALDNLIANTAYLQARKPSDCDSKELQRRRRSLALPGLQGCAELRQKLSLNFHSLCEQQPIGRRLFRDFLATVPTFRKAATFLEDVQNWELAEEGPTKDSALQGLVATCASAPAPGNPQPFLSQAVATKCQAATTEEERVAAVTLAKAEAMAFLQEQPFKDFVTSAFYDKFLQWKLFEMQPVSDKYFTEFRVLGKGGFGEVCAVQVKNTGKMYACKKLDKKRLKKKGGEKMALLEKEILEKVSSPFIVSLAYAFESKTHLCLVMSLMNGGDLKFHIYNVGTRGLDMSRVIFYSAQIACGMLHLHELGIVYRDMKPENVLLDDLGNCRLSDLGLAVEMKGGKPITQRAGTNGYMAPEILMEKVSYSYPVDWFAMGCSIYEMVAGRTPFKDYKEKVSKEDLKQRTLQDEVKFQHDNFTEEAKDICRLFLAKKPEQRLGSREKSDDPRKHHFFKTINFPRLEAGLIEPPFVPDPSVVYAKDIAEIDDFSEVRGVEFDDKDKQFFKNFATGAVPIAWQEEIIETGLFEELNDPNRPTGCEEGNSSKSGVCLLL
Method: as §1, §2, §3

Rse (h) = biological target: T4, Rse (h) (Homo sapiens, UniProt Q06418)
T4 sequence (Q06418 41-890): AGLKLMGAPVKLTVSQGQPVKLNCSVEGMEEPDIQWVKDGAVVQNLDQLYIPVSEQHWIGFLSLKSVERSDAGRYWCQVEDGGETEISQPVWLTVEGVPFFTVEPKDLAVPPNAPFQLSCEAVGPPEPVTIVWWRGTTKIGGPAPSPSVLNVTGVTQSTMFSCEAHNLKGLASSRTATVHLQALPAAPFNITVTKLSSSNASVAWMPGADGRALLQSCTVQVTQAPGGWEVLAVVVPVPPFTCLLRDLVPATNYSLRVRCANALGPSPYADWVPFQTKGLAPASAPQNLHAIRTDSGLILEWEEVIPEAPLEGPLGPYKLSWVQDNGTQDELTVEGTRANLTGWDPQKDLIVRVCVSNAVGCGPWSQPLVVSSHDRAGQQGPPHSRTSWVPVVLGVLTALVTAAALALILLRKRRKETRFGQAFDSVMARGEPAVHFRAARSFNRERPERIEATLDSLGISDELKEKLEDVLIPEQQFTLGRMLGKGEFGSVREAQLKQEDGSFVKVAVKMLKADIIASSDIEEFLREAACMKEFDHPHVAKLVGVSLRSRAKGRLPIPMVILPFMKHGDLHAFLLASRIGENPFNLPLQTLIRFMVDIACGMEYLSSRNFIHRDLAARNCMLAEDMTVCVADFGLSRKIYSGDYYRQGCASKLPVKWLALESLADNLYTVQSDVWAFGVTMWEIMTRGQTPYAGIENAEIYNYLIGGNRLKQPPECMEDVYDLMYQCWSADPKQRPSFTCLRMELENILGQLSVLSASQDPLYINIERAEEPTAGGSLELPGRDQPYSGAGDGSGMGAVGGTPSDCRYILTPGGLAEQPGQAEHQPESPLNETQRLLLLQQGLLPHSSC
Method: as §1, §2, §3

Ros (h) = Ros (h) (Homo sapiens, UniProt P08922)
Ros (h), sequence (P08922 28-2347): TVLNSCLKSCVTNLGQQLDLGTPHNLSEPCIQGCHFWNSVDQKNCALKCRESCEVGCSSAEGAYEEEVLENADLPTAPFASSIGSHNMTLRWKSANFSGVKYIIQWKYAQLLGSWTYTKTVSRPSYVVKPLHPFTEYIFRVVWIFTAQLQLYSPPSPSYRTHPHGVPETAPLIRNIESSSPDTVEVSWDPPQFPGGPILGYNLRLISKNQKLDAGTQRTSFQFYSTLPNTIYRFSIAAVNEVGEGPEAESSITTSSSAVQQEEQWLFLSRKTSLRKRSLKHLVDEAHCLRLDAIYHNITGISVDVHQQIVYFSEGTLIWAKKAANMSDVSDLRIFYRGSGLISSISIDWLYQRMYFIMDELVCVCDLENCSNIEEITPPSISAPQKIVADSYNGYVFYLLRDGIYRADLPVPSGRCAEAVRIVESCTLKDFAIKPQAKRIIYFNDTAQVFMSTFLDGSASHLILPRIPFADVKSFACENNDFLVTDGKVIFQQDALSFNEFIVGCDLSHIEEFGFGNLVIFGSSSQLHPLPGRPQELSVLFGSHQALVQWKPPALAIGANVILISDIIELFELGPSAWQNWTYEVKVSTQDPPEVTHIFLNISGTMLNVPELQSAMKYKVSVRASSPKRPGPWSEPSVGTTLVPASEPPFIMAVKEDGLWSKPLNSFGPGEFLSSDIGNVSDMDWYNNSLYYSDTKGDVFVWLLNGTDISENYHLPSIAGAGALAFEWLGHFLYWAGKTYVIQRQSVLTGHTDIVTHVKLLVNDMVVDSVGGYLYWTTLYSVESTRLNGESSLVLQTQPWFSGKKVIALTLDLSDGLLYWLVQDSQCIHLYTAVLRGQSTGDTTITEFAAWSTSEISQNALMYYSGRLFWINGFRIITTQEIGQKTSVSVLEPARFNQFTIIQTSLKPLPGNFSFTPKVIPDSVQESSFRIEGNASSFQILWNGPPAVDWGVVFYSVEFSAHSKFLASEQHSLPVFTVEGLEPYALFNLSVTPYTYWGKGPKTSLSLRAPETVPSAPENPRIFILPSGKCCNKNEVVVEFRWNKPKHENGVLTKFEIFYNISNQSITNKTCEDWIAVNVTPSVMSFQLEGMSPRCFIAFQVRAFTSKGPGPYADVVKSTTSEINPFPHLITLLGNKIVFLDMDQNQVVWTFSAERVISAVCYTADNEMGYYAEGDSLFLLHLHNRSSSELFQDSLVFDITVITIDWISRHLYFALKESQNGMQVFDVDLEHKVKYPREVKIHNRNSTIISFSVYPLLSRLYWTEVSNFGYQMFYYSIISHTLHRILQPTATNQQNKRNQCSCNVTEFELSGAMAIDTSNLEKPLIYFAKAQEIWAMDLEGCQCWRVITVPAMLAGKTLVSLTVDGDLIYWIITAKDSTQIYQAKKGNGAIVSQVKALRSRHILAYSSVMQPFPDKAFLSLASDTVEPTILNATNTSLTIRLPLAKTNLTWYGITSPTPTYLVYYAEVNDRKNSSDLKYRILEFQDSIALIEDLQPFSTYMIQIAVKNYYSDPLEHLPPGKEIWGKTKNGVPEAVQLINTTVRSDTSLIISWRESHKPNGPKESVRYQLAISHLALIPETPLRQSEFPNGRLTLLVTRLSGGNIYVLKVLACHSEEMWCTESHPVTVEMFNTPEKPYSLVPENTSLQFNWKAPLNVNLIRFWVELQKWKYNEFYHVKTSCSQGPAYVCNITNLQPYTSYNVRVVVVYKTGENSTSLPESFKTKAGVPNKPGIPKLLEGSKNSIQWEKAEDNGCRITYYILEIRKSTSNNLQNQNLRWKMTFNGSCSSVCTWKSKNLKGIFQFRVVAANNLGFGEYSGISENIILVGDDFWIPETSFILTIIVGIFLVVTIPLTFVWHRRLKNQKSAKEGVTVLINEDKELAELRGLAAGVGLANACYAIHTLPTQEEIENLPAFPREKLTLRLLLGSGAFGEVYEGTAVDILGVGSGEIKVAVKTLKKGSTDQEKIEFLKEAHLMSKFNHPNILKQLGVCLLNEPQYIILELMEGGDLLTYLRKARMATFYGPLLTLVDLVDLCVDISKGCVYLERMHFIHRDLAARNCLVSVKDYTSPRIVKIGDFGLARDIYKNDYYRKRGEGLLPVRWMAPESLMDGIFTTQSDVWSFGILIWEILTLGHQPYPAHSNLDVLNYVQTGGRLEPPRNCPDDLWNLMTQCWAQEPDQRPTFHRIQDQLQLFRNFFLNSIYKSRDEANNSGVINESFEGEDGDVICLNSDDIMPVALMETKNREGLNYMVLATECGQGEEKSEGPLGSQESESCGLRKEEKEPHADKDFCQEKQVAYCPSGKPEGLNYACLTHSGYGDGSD
Method: as §1, §2, §3

T1 sequence (Q05655 whole entry): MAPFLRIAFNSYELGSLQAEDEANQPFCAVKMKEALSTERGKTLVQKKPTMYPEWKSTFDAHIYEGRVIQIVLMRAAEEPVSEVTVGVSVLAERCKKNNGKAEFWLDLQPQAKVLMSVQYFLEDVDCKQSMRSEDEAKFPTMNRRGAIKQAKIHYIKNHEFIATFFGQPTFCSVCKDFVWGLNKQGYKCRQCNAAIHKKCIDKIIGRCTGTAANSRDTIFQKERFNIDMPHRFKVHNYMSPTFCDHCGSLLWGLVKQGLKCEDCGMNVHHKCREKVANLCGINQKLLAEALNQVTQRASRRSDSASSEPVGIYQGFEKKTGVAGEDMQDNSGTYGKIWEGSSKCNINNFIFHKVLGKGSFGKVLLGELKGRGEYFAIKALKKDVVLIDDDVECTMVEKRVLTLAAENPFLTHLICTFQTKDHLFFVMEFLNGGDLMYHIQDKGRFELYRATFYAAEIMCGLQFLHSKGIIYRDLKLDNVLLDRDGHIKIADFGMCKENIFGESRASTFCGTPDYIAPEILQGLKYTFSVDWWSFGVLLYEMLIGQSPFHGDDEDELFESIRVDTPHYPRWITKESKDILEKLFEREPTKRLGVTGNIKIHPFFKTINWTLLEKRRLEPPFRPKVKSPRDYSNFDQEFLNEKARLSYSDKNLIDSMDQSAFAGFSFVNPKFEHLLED

**Q.** FAKLAARLYRKALARQLGVAA [MMI-0300] was tested. Which “% activity” value (PKCδ (h)) did it give?
**A.** 101%

**Q.** What about the “% activity” value (ROCK-I (h)) of the same sequence?
**A.** 79%

**Q.** What about the “% activity” value (IKKβ (h)) of the same sequence?
**A.** 84%

**Q.** What about the “% activity” value (GRK7 (h)) of the same sequence?
**A.** 122%

**Q.** And the “% activity” value (Rse (h))?
**A.** 88%

**Q.** What about the “% activity” value (Ros (h)) of the same sequence?
**A.** 95%

**Q.** For “HRRIKAWLKKIKALARQLGVAA (Mammalian) [MMI-0500]”, which “% activity” value (PKCδ (h)) is on record?
**A.** 61%

**Q.** And the “% activity” value (ROCK-I (h))?
**A.** 17%

**Q.** What about the “% activity” value (IKKβ (h)) of the same sequence?
**A.** 71%

**Q.** And the “% activity” value (GRK7 (h))?
**A.** 93%

**Q.** And the “% activity” value (Rse (h))?
**A.** 63%

**Q.** What about the “% activity” value (Ros (h)) of the same sequence?
**A.** 150%

**Q.** Which results are given for KAFAKLAARLYRKALARQLGVAA [MMI-0400]?
**A.** % activity (PKCδ (h)): 90%; % activity (ROCK-I (h)): 73%; % activity (IKKβ (h)): 84%; % activity (GRK7 (h)): 100%; % activity (Rse (h)): 89%; % activity (Ros (h)): 99%

**Q.** Which “% activity” value (PKCδ (h)) does the source give for “YARAAARQARAKALNRQLGVA (Mammalian) [MMI-0200]” here?
**A.** 101%

**Q.** And the “% activity” value (GRK7 (h))?
**A.** 124%

**Q.** What about the “% activity” value (Rse (h)) of the same sequence?
**A.** 88%

**Q.** And the “% activity” value (Ros (h))?
**A.** 86%
